Assay results reported in US20050026841A1, “Hab18g/cd147 its antagonist and application” (priority 2001, published 2005).
Marks after values point to notes of the source that are not given here. Where no end group is shown, it is not given here.

T1: HAb18G/CD147 on HHCC hepatocellular carcinoma cells (human, UniProt P35613 140-385, glycosylated (mode not specified))
T1 sequence: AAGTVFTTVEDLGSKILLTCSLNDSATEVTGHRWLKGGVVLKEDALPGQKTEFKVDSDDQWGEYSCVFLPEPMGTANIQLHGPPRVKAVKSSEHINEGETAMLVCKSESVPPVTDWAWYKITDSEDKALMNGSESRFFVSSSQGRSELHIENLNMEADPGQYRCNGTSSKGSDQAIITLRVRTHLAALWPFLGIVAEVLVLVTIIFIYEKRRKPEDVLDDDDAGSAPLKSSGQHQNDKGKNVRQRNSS

B1: HAb18G/CD147: hepatocellular carcinoma-associated antigen of 269 amino acids, purified from HHCC cells by HAb18 affinity chromatography (protein, listed as Homo sapiens)
chain: MAAALFVLLGFALLGTHGASGAAGTVFTTVEDLGSKILLTCSLNDSATEVTGHRWLKGGVVLKEDALPGQKTEFKVDSDDQWGEYSCVFLPEPMGTANIQLHGPPRVKAVKSSEHINEGETAMLVCKSESVPPVTDWAWYKITDSEDKALMNGSESRFFVSSSQGRSELHIENLNMEADPGQYRCNGTSSKGSDQAIITLRVRTHLAALWPFLGIVAEVLVLVTIIFIYEKRRKPEDVLDDDDAGSAPLKSSGQHQNDKGKNVRQRNSS

What follows are molecules tested on human fibroblasts (assay: gelatin zymography of human fibroblasts stimulated by purified HAb18G/CD147). Settings: MMP-9, MMP-2 and MT1-MMP.
Type: cell-based
Procedure: The experiments were carried out as follows:
Purified HAb18G/CD147 was added to the cultured human fibroblasts and the supernatant of the culture was collected and then subjected to SDS-PAG electrophoresis in a separation gel containing 1 mg/ml gelatin. Different from the conventional SDS-PAGE, no DTT was added to the sample and furthermore, the sample was not boiled. After electrophoresis, the gel was washed twice (45 min/each time) at room temperature and washed twice (20 min/each time) with 0.1 mol/L NaCl, and then incubated for 24 hours in an incubation solution at 37° C. The gel was stained with 0.5% (w/v) Coomassie Blue and then destained. MMPs were detected as clear bands against a blue background.

Row | Molecule | MMPs secreted by human fibroblasts after stimulation
1 | B1 | secreted three different MMPs

These molecules were tested on HHCCs (assay: reconstituted basement membrane invasion assay with antagonistic peptides). Settings: invasion of HHCCs through reconstituted basement membrane, 20 hours, vs control.
Type: cell-based, human
Procedure: Matrigel (main component was type IV collagen, BD Company) was added onto the inner surface of Boyden Chambers (Millipore) to form the reconstituted basement membrane. Cells (HHCC cells and human fibroblasts) and antisense RNA were added and the chambers were put in the 24-well plates and co-cultured overnight. Cells infiltrated through the reconstituted basement membrane and appeared on the outer surfaces of the membrane were stained and counted under high-power microscope.
1. in vitro studies: reconstituted basement membrane invasion was employed to test the effects of the antagonistic peptides for HAb18G/CD147 on the invasive ability of HHCCs. Antagonistic peptides were co-cultured with HHCCs and fibroblasts on the reconstituted basement membrane for 20 hours. Cells infiltrated through the reconstituted basement membrane were counted under high-power microscope and the inhibitory rate of the antagonistic peptides was calculated.

Row | Molecule | inhibitory rate (%)
2 | ANIVPIHANHFQ [AP-7, antagonistic 12-mer peptide for HAb18G/CD147] | 56.44^a %
3 | MHKHPHGSQGPT [AP-8, antagonistic 12-mer peptide for HAb18G/CD147] | 68.32^a %
4 | MTHDPVISLPTT [AP-1, antagonistic 12-mer peptide for HAb18G/CD147] | 78.2^a %
5 | YKLPGHHHHYRP [AP-9, antagonistic 12-mer peptide for HAb18G/CD147] | 81.19^a %
6 | YPFHHKHWHRPN [AP-6, antagonistic 12-mer peptide for HAb18G/CD147] | 62.38^a %

Same assay, conditions: reconstituted basement membrane invasion

Row | Molecule | inhibition of hepatocellular carcinoma cells invasion and metastasis (in words)
7 | ANIVPIHANHFQ [AP-7, antagonistic 12-mer peptide for HAb18G/CD147] | significantly inhibited
8 | GHWHNHRHQAPL [AP-3, antagonistic 12-mer peptide for HAb18G/CD147] | significantly inhibited
9 | MHKHPHGSQGPT [AP-8, antagonistic 12-mer peptide for HAb18G/CD147] | significantly inhibited
10 | MTHDPVISLPTT [AP-1, antagonistic 12-mer peptide for HAb18G/CD147] | significantly inhibited
11 | YKLPGHHHHYRP [AP-9, antagonistic 12-mer peptide for HAb18G/CD147] | significantly inhibited
12 | YPFHHKHWHRPN [AP-6, antagonistic 12-mer peptide for HAb18G/CD147] | significantly inhibited

What follows are molecules tested on HHCC cells (assay: tumorigenesis of HHCC cells inoculated in mice). Settings: 200 μl HHCC cells (1×10^6/ml), i.v. 2.5 mg/kg.
Type: in vivo
Procedure: 2. in vivo studies: The mice were inoculated with 200 μl HHCC cells (1×10^6/ml) and were then treated with HAb18G/CD147 antagonistic peptides (i.v.) at the dose of 2.5 mg/kg weight. […] Moreover, the average survival time of mice in therapeutic group was two times as long as that of the control group. A high metastatic human hepatocellular carcinoma cell line MHCC97-H was transplanted into the liver of nude mice to investigate the anti-metastasis effects of APs. […] The inhibitory effects of HAb18G/CD147 antagonistic peptides on angiogenesis in chick embryo chorioallantoic membrane (CAM) as well as on angiogenesis induced by Matrigel plug were detected.

Row | Molecule | inhibitory effect on tumorigenesis of hepatocellular carcinoma cells
13 | MTHDPVISLPTT [AP-1, antagonistic 12-mer peptide for HAb18G/CD147] | significant inhibitory effects
14 | YPFHHKHWHRPN [AP-6, antagonistic 12-mer peptide for HAb18G/CD147] | significant inhibitory effects

Same assay, conditions: HHCC cells, i.v. 2.5 mg/kg, tumors formed in all control mice

Row | Molecule | tumor formation on the 11th day from inoculation
15 | YPFHHKHWHRPN [AP-6, antagonistic 12-mer peptide for HAb18G/CD147] | no tumor formed

The molecules below were run against T1, HAb18G/CD147 on HHCC hepatocellular … (assay: cell-based or functional assay). Settings: not given.

Row | Molecule | infiltrative cells | inhibitory rate (%)
16 | YPFHHKHWHRPN [HAb18G/CD147 binding/antagonistic peptide (6)] | 7.6 cells | 62.4%
17 | MTHDPVISLPTT [HAb18G/CD147 binding/antagonistic peptide (1)] | 4.4 cells | 78.2%
18 | IGWHYYLRTQHS [HAb18G/CD147 binding/antagonistic peptide (5)] | 23.2 cells | -14.8%
19 | KYPHQHLHMHDS [HAb18G/CD147 binding/antagonistic peptide (4)] | 12.2 cells | 39.6%
20 | ANIVPIHANHFQ [HAb18G/CD147 binding/antagonistic peptide (7)] | 8.8 cells | 56.4%
21 | LHRHSHGHSYKS [HAb18G/CD147 binding/antagonistic peptide (2)] | 28 cells | -38.6%
22 | MHKHPHGSQGPT [HAb18G/CD147 binding/antagonistic peptide (8)] | 6.4 cells | 68.3%
23 | GHWHNHRHQAPL [HAb18G/CD147 binding/antagonistic peptide (3)] | 2 cells | 90.1%
24 | YKLPGHHHHYRP [HAb18G/CD147 binding/antagonistic peptide (9)] | 3.8 cells | 81.2%
